# Source: the RNAGym collection of RNA variant scans (doi:10.7554/elife.80360)
# B1: CPEB3 Ribozyme (parent)
# chain: GGGGGCCACAGCAGAAGCGUUCACGUCGCGGCCCCUGUCAGAUUCUGGUGAAUCUGCGAAUUCUGCUGU
# Variants of: B1
# Test: self-cleavage, relative activity (ratio to wild type); higher = more cleavage; co-transcriptional
row,Variant,self-cleavage
1,C27A G58C,0.605
2,C27G C34A,0.207
3,G28C G30U,0.2
4,C27A U49A,0.763
5,C27U U55G,0.188
6,C27A U53G,0.338
7,C27G U43G,0.154
8,C27G U43A,0.133
9,C27G G37A,0.135
10,C27G G37U,0.165
11,G28C C45A,0.135
12,G28C C45U,0.194
13,U26G U49A,0.918
14,G28C U64C,0.194
15,U26G G47U,0.916
16,U26G G47A,0.893
17,G28U C35U,0.192
18,U26C G28C,0.1
19,G28A U36A,0.154
20,C27G G28A,0.147
21,G28C G58A,0.156
22,G28C G58U,0.187
23,G28C C54A,0.151
24,C27G A40G,0.243

row,Variant,self-cleavage
1,C27G A40U,0.17
2,U26G C57U,0.255
3,U26A G48U,0.928
4,C27G U36G,0.14
5,C27G U36C,0.168
6,U26A U64C,0.72
7,C27G C54A,0.187
8,U26C C34A,0.731
9,U26C C34U,0.935
10,U26G G30A,0.509
11,U26G U64G,0.784
12,C27A C29U,0.21
13,C27A C29A,0.184
14,U26C U55G,0.74
15,C27U A42U,0.167
16,G28C U62G,0.209
17,G28U G37A,0.206
18,C27A A59G,0.353
19,C27A C66U,0.516
20,G28A G65A,0.152
21,G28A G65U,0.172
22,C27A G68C,0.765
23,C27A G68U,0.811
24,C27G G68A,0.228

row,Variant,self-cleavage
1,C27G C63A,0.197
2,C27G U38G,0.255
3,G28U C34G,0.219
4,G28U C34U,0.204
5,G28C G48C,0.135
6,G28C U49A,0.126
7,G28C U49G,0.182
8,U26C C45G,0.983
9,U26C C45A,0.936
10,U26C G56A,0.855
11,C27G G48C,0.241
12,C27G G48U,0.163
13,U26C G48U,1.01
14,C27A G31A,0.171
15,C27A G31U,0.165
16,G28A C39G,0.157
17,C27A U67G,0.635
18,U26G U61C,0.418
19,U26G U61A,0.621
20,G28A A59G,0.17
21,G28A A59C,0.185
22,C27A G41U,0.16
23,C27U U49C,0.301
24,C27U U49A,0.442

row,Variant,self-cleavage
1,U26A U46C,0.809
2,U26C C27G,0.195
3,U26C C27U,0.182
4,U26C C27A,0.45
5,C27G U64C,0.254
6,C27U A40C,0.198
7,C27U A59G,0.246
8,C27U A59C,0.127
9,C27U A59U,0.212
10,G28A G30A,0.156
11,G28A G30U,0.155
12,C27G C57U,0.189
13,G28C C39A,0.156
14,G28C C39U,0.207
15,C27G C45U,0.229
16,C27G C45A,0.17
17,U26A U55A,0.745
18,C27G G56U,0.156
19,C27G G56A,0.178
20,U26G G31C,0.131
21,U26G G31U,0.242
22,U26G U55C,0.787
23,U26G U55A,0.737
24,G28C A42C,0.183

row,Variant,self-cleavage
1,G28C A42G,0.128
2,U26G C66U,0.888
3,U26G C66A,0.533
4,U26C A42G,0.924
5,U26A U62G,0.652
6,U26A U62C,0.669
7,C27G U44C,0.145
8,C27G U44A,0.212
9,G28C,0.173
10,G28U,0.178
11,G28A,0.213
12,C27G G47U,0.17
13,C27G G47A,0.265
14,C27A C57G,0.298
15,U26G G28A,0.183
16,U26G G28U,0.178
17,C27A C45U,0.596
18,C27A U61A,0.28
19,C27G U69G,0.29
20,G28A G41A,0.178
21,G28A G41U,0.148
22,U26A G56A,0.748
23,U26G A59U,0.455
24,U26G A42G,0.78

row,Variant,self-cleavage
1,U26C G30C,0.486
2,U26C G68C,1.03
3,G28U A42C,0.153
4,U26C C33U,0.997
5,U26A U49C,0.79
6,U26A U49A,0.866
7,U26A U49G,0.866
8,G28A U55G,0.167
9,G28A U55A,0.169
10,C27U G28A,0.126
11,C27A U46C,0.621
12,G28U G56A,0.14
13,G28U G56C,0.163
14,G28A G48A,0.19
15,G28A G48U,0.19
16,G28A G48C,0.213
17,C27U U62G,0.276
18,C27U U62C,0.189
19,C27A U43C,0.404
20,C27U U69A,0.502
21,G28A G68A,0.294
22,G28C U44G,0.191
23,U26A U43A,0.846
24,C27G G58A,0.16

row,Variant,self-cleavage
1,G28C C33G,0.166
2,G28U A51U,0.182
3,G28C G50A,0.166
4,G28C G50C,0.168
5,G28C G50U,0.143
6,C27U U64A,0.161
7,U26G C35U,0.726
8,U26C U69G,1.06
9,U26C C66U,0.939
10,G28A C35G,0.188
11,U26C G50A,0.953
12,G28A C66U,0.165
13,G28A C66A,0.189
14,G28U G50U,0.165
15,U26G C63G,0.427
16,U26G C45U,0.982
17,U26C U53A,0.958
18,U26C U53G,0.873
19,U26A G50U,0.818
20,U26G C29A,0.329
21,U26A U44C,0.768
22,U26G C32U,0.922
23,G28U C57A,0.188
